Patent EP4713368A1 (dated 2026)
Positions count from the first letter of the chain named.

B1: Ab No. 61 (antibody, V domains shown)
VH: EVQLLESGGGLVQPGGSLRLSCAASGFTFDHYAMSWVRQAPGKGLEWVSAISASGDETYYADSVKGRFTISRDNSKNTLYLQMNSLRAEDTAVYYCARDSPHMATYKSYYYYGMDVWGQGTTVTVSS
VL: DIVMTQSPDSLAVSLGERATINCKSSQSLLNARTGKNYLAWYQQKPGQPPKLLIYWASTRESGVPDRFSGSGSGTDFTLTISSLQAEDVAVYYCKQSYSLRTFGGGTKVEIK
notes: IgG format
B2: Ab No. 8 (antibody, V domains shown)
VH: QVQLVQSGAEVKKPGSSVKVSCKASGGTFSSYAISWVRQAPGQGLEWMGGIIPISGTANYAQKFQGRVTITADESTSTAYMELSSLRSEDTAVYYCAKTRTVAYPGSDWGQGTLVTVSS
VL: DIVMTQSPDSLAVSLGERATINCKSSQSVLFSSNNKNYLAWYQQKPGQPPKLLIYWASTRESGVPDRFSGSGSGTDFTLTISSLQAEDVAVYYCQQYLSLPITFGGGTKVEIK
notes: IgG format
B3: Ab No. 57 (antibody, V domains shown)
VH: QVQLQESGPGLVKPSETLSLTCTVSGGSISSYYWSWIRQPPGKGLEWIGSIYYSGSTNYNPSLKSRVTISVDTSKNQFSLKLSSVTAADTAVYYCARTEVGATRPREDFQHWGQGTLVTVSS
VL: QSVLTQPPSVSAAPGQKVTISCSGSSSNIGNNYVSWYQQLPGTAPKLLIYDNNKRPSGIPDRFSGSKSGTSATLGITGLQTGDEADYYCGTWDISLGWVFGGGTKLTVL
notes: IgG format
B4: Ab No. 6 (antibody, V domains shown)
VH: QVQLVQSGAEVKKPGSSVKVSCKASGGTFSSYAISWVRQAPGQGLEWMGGIIPISGTANYAQKFQGRVTITADESTSTAYMELSSLRSEDTAVYYCAKGGFGAPLPTWGQGTLVTVSS
VL: DIQMTQSPSSVSASVGDRVTITCRASQGISSWLAWYQQKPGKAPKLLIYAASSLQSGVPSRFSGSGSGTDFTLTISSLQPEDFATYYCQQGISHPFTFGGGTKVEIK
notes: IgG format
B5: Ab No. 7 (antibody, V domains shown)
VH: B4 VH
VL: B4 VL with V11L, G28S, W32Y, A34N, A50S, I92S, H94V
notes: IgG format
B6: Ab No. 5 (antibody, V domains shown)
VH: B4 VH
VL: B4 VL with M4L, G28D, I92N, S93A
notes: IgG format
B7: Ab No. 46 (antibody, V domains shown)
VH: QVQLVQSGAEVKKPGSSVKVSCKASGGTFSSYAISWVRQAPGQGLEWMGGIIPISGTTNYAQKFQGRVTITADESTSTAYMELSSLRSEDTAVYYCARHSSSWGTAITSDYWGQGTLVTVSS
VL: QSVLTQPPSVSGAPGQRVTISCTGSGSNIGAGYDVHWYQQLPGTAPKLLIYGNTNRPSGVPDRFSGSKSGTSASLAITGLQAEDEADYYCQSNDNSLRGILFGGGTKLTVL
notes: IgG format
B8: Ab No. 28 (antibody, V domains shown)
VH: EVQLLESGGGLVQPGGSLRLSCAASGFTFSSYAMSWVRQAPGKGLEWVSAISGSGGSTYYADSVKGRFTISRDNSKNTLYLQMNSLRAEDTAVYYCVRGYRLVGILTGSHFDYWGQGTLVTVSS
VL: DIQMTQSPSTLSASVGDRVTITCRASQSIGSWLAWYQQKPGKAPKLLIYKASSLESGVPSRFSGSGSGTEFTLTISSLQPDDFATYYCQQYNILPPTFGGGTKVEIK
notes: IgG format
B9: Ab No. 3 (antibody, V domains shown)
VH: QVQLVQSGAEVKKPGSSVKVSCKASGGTFSSYAISWVRQAPGQGLEWMGGIIPISGTANYAQKFQGRVTITADESTSTAYMELSSLRSEDTAVYYCAKALAPGIPQWGQGTLVTVSS
VL: DIQMTQSPSSLSASVGDRVTITCRASQSISSYLNWYQQKPGKAPKLLIYAASSLQSGVPSRFSGSGSGTDFTLTISSLQPEDFATYYCQQAYDDPTFGGGTKVEIK
notes: IgG format
B10: Ab No. 4 (antibody, V domains shown)
VH: B9 VH
VL: B4 VL with V11L, G28S, S31R, W32Y, A34N, A50G, G91A, I92F, H94S, F96I
notes: IgG format
B11: Ab No. 9 (antibody, V domains shown)
VH: B9 VH with K98L, A99G, L100R, A101W, P102L, G103T, I104E, P105A
VL: not shown
notes: IgG format
B12: Ab No. 28d (antibody, V domains shown)
VH: B8 VH with S30D, S31A, G56V, S57R
VL: B8 VL
notes: derived from Ab No. 28 by modifying VH CDRs, VL unchanged; IgG format
B13: Ab No. 28a (antibody, V domains shown)
VH: B8 VH with S30G, S35H, G56Q, Y59D
VL: B8 VL
notes: as for B12
B14: Ab No. 28f (antibody, V domains shown)
VH: B8 VH with S31T, A33G, S35N, G56L, S57N
VL: B8 VL
notes: as for B12
B15: Ab No. 28e (antibody, V domains shown)
VH: B8 VH with S30G, S31R, S54D, G55A, Y59F
VL: B8 VL
notes: as for B12
B16: Ab No. 28c (antibody, V domains shown)
VH: B8 VH with T28P, S31A, A33G, S57N, Y59D
VL: B8 VL
notes: as for B12
B17: Ab No. 28b (antibody, V domains shown)
VH: B8 VH with S31K, A33Q, S54T, G56E, Y59D
VL: B8 VL
notes: as for B12
B18: Ab No. 21a (antibody, V domains shown)
VH: QVQLVQSGAEVKKPGSSVKVSCKASGGTFNAYAISWVRQAPGQGLEWMGGIIPISGTAAYAQKFQGRVTITADESTSTAYMELSSLRSEDTAVYYCTRDLGFGAIRDTWGQGTLVTVSS
VL: EIVLTQSPATLSLSPGERATLSCRASQSVSSYLAWFQQKPGQAPRLLIYDASNRATGIPARFSGSGSGTDFTLTISSLEPEDFAVYYCQQSLNLPITFGGGTKVEIK
notes: derived from Ab No. 21 by modifying VH CDRs, VL unchanged; IgG format
B19: Ab No. 21d (antibody, V domains shown)
VH: B18 VH with N30S, A31T, A59N
VL: B18 VL
notes: as for B18
B20: Ab No. 21c (antibody, V domains shown)
VH: B18 VH with N30S, A31G, G56A, A59N
VL: B18 VL
notes: as for B18
B21: Ab No. 21e (antibody, V domains shown)
VH: B18 VH with N30D, A31N, A59I
VL: B18 VL
notes: as for B18
B22: Ab No. 21b (antibody, V domains shown)
VH: B18 VH with A59N
VL: B18 VL
notes: as for B18
B23: Ab No. 21f (antibody, V domains shown)
VH: B18 VH with N30G, A31G, G56A, A59F
VL: B18 VL
notes: as for B18

What follows are binders tested against T1, human CD28 (human, UniProt P10747 19-152, limits assumed) (assay: selection from yeast-presented libraries of heavy chains and CD3-binding light chains).
T1 construct: also called Cluster of Differentiation 28; Tp44

Q: Does B1 bind?
A: binds

What follows are binders tested against T1, human CD28 (assay: selection from yeast-presented synthetic human antibody libraries).

Q: Does B2 bind?
A: binds

Q: Does B3 bind?
A: binds

Q: Does B4 bind?
A: binds

Q: Does B5 bind?
A: binds

Q: Does B6 bind?
A: binds

Q: Does B7 bind?
A: binds

Q: Does B8 bind?
A: binds

Q: Does B9 bind?
A: binds

Q: Does B10 bind?
A: binds

Q: Does B11 bind?
A: binds

Each binder was assayed against T1, human CD28 (assay: affinity maturation of CD28-binding antibodies (Example 10: Discovery of Additional Antibodies that Bind to CD28)).

Q: Does B12 bind?
A: binds

Q: Does B13 bind?
A: binds

Q: Does B14 bind?
A: binds

Q: Does B15 bind?
A: binds

Q: Does B16 bind?
A: binds

Q: Does B17 bind?
A: binds

Q: Does B18 bind?
A: binds

Q: Does B19 bind?
A: binds

Q: Does B20 bind?
A: binds

Q: Does B21 bind?
A: binds

Q: Does B22 bind?
A: binds

Q: Does B23 bind?
A: binds
